From FireProtDB (doi:10.1021/bi962939w) come the findings set out here.

For this data set the following is noted: Mus musculus, 25 °C, CD, whole UniProt chain shown.
Setting [1] is: pH 4, Urea, Sodium acetate 10 mM.

B1: Interleukin-6 wild type, P08505 (protein)
chain: MKFLSARDFHPVAFLGLMLVTTTAFPTSQVRRGDFTEDTTPNRPVYTTSQVGGLITHVLWEIVEMRKELCNGNSDCMNNDDALAENNLKLPEIQRNDGCYQTGYNQEICLLKISSGLLEYHSYLEYMKNNLKDNKKDKARVLQRDTETLIHIFNQEVKDLHKIVLPTPISNALLTDKLESQKEWLRTKTIQFILKSLEEFLKVTLRSTRQT
Turning to B1, under setting [1], the denaturant m value came to 3 kcal/mol/M, the “denaturant midpoint (higher = more stable)” value (“denaturant midpoint” below) came out at 3.59 M and the unfolding free energy was determined as 10.8 kcal/mol. Where the note is “pH 7.4, GdnHCl, Tris-HCl 10 mM”, the denaturant m value is 1 kcal/mol/M, the “denaturant midpoint” value turned out to be 1.9 M and the unfolding free energy was 1.9 kcal/mol. Further, for the setting “pH 7.4, Urea, Tris-HCl 10 mM”, the denaturant m value is 1.1 kcal/mol/M, the “denaturant midpoint” value came out at 5.2 M and the unfolding free energy was determined as 5.7 kcal/mol.
